Test results: patent US20230093708A1, “PROTEIN NANOPARTICLE DESIGN AND APPLICATION” (Duke University, priority 2020, published 2023)

B1: RLP40-ELPV80: RLP-ELP block co-polypeptide with Val guest residue in the corona (protein)
chain: QYPSDGRGQYPSDGRGQYPSDGRGQYPSDGRGQYPSDGRGQYPSDGRGQYPSDGRGQYPSDGRGQYPSDGRGQYPSDGRGQYPSDGRGQYPSDGRGQYPSDGRGQYPSDGRGQYPSDGRGQYPSDGRGQYPSDGRGQYPSDGRGQYPSDGRGQYPSDGRGQYPSDGRGQYPSDGRGQYPSDGRGQYPSDGRGQYPSDGRGQYPSDGRGQYPSDGRGQYPSDGRGQYPSDGRGQYPSDGRGQYPSDGRGQYPSDGRGQYPSDGRGQYPSDGRGQYPSDGRGQYPSDGRGQYPSDGRGQYPSDGRGQYPSDGRGQYPSDGRGGVGVPGVGVPGVGVPGVGVPGVGVPGVGVPGVGVPGVGVPGVGVPGVGVPGVGVPGVGVPGVGVPGVGVPGVGVPGVGVPGVGVPGVGVPGVGVPGVGVPGVGVPGVGVPGVGVPGVGVPGVGVPGVGVPGVGVPGVGVPGVGVPGVGVPGVGVPGVGVPGVGVPGVGVPGVGVPGVGVPGVGVPGVGVPGVGVPGVGVPGVGVPGVGVPGVGVPGVGVPGVGVPGVGVPGVGVPGVGVPGVGVPGVGVPGVGVPGVGVPGVGVPGVGVPGVGVPGVGVPGVGVPGVGVPGVGVPGVGVPGVGVPGVGVPGVGVPGVGVPGVGVPGVGVPGVGVPGVGVPGVGVPGVGVPGVGVPGVGVPGVGVPGVGVPGVGVPGVGVPGVGVPGVGVPGVGVPGVGVP
B2: RLP80-ELP160: RLP-ELP block co-polypeptide, 80 core and 160 corona repeats (protein)
chain: QYPSDGRGQYPSDGRGQYPSDGRGQYPSDGRGQYPSDGRGQYPSDGRGQYPSDGRGQYPSDGRGQYPSDGRGQYPSDGRGQYPSDGRGQYPSDGRGQYPSDGRGQYPSDGRGQYPSDGRGQYPSDGRGQYPSDGRGQYPSDGRGQYPSDGRGQYPSDGRGQYPSDGRGQYPSDGRGQYPSDGRGQYPSDGRGQYPSDGRGQYPSDGRGQYPSDGRGQYPSDGRGQYPSDGRGQYPSDGRGQYPSDGRGQYPSDGRGQYPSDGRGQYPSDGRGQYPSDGRGQYPSDGRGQYPSDGRGQYPSDGRGQYPSDGRGQYPSDGRGQYPSDGRGQYPSDGRGQYPSDGRGQYPSDGRGQYPSDGRGQYPSDGRGQYPSDGRGQYPSDGRGQYPSDGRGQYPSDGRGQYPSDGRGQYPSDGRGQYPSDGRGQYPSDGRGQYPSDGRGQYPSDGRGQYPSDGRGQYPSDGRGQYPSDGRGQYPSDGRGQYPSDGRGQYPSDGRGQYPSDGRGQYPSDGRGQYPSDGRGQYPSDGRGQYPSDGRGQYPSDGRGQYPSDGRGQYPSDGRGQYPSDGRGQYPSDGRGQYPSDGRGQYPSDGRGQYPSDGRGQYPSDGRGQYPSDGRGQYPSDGRGQYPSDGRGQYPSDGRGGAGVPGGGVPGAGVPGGGVPGAGVPGGGVPGAGVPGGGVPGAGVPGGGVPGAGVPGGGVPGAGVPGGGVPGAGVPGGGVPGAGVPGGGVPGAGVPGGGVPGAGVPGGGVPGAGVPGGGVPGAGVPGGGVPGAGVPGGGVPGAGVPGGGVPGAGVPGGGVPGAGVPGGGVPGAGVPGGGVPGAGVPGGGVPGAGVPGGGVPGAGVPGGGVPGAGVPGGGVPGAGVPGGGVPGAGVPGGGVPGAGVPGGGVPGAGVPGGGVPGAGVPGGGVPGAGVPGGGVPGAGVPGGGVPGAGVPGGGVPGAGVPGGGVPGAGVPGGGVPGAGVPGGGVPGAGVPGGGVPGAGVPGGGVPGAGVPGGGVPGAGVPGGGVPGAGVPGGGVPGAGVPGGGVPGAGVPGGGVPGAGVPGGGVPGAGVPGGGVPGAGVPGGGVPGAGVPGGGVPGAGVPGGGVPGAGVPGGGVPGAGVPGGGVPGAGVPGGGVPGAGVPGGGVPGAGVPGGGVPGAGVPGGGVPGAGVPGGGVPGAGVPGGGVPGAGVPGGGVPGAGVPGGGVPGAGVPGGGVPGAGVPGGGVPGAGVPGGGVPGAGVPGGGVPGAGVPGGGVPGAGVPGGGVPGAGVPGGGVPGAGVPGGGVPGAGVPGGGVPGAGVPGGGVPGAGVPGGGVPGAGVPGGGVPGAGVPGGGVPGAGVPGGGVPGAGVPGGGVPGAGVPGGGVPGAGVPGGGVPGAGVPGGGVPGAGVPGGGVPGAGVPGGGVPGAGVPGGGVPGAGVPGGGVPGAGVPGGGVPGAGVPGGGVPGAGVPGGGVP
B3: RLP40-ELP40: RLP-ELP block co-polypeptide, 40 core and 40 corona repeats (protein)
chain: QYPSDGRGQYPSDGRGQYPSDGRGQYPSDGRGQYPSDGRGQYPSDGRGQYPSDGRGQYPSDGRGQYPSDGRGQYPSDGRGQYPSDGRGQYPSDGRGQYPSDGRGQYPSDGRGQYPSDGRGQYPSDGRGQYPSDGRGQYPSDGRGQYPSDGRGQYPSDGRGQYPSDGRGQYPSDGRGQYPSDGRGQYPSDGRGQYPSDGRGQYPSDGRGQYPSDGRGQYPSDGRGQYPSDGRGQYPSDGRGQYPSDGRGQYPSDGRGQYPSDGRGQYPSDGRGQYPSDGRGQYPSDGRGQYPSDGRGQYPSDGRGQYPSDGRGQYPSDGRGGAGVPGGGVPGAGVPGGGVPGAGVPGGGVPGAGVPGGGVPGAGVPGGGVPGAGVPGGGVPGAGVPGGGVPGAGVPGGGVPGAGVPGGGVPGAGVPGGGVPGAGVPGGGVPGAGVPGGGVPGAGVPGGGVPGAGVPGGGVPGAGVPGGGVPGAGVPGGGVPGAGVPGGGVPGAGVPGGGVPGAGVPGGGVPGAGVPGGGVP

How the values were obtained:
[1] = Static and dynamic light scattering (SLS/DLS) of block co-polypeptides; type: physicochemical; settings: for Nagg / Rg(nm) / Rh (nm): 10 μM in PBS, 15 °C; for ρ: shape factor Rg/Rh
Procedure: Key parameters of interest are the hydrophilicity of the corona-forming block, the hydrophilicity of the core block, the overall length of the co-polypeptide and the ratio of the two blocks. Parameters of evaluation are the size, morphology, stability, and thermoresponsive behavior. All measurements were made in 140 mM NaCl, 10 mM phosphate buffer, 3 mM KCl, pH 7.4 unless otherwise specified. Size was evaluated by the hydrodynamic radios (Rh) and radius of gyration (Rg) by dynamic light scattering (DLS) and static light scattering (SLS) respectively. Rg and Rh can be combined to yield the shape factor ρ=Rg/Rh, which provides a rough indication of the morphology of the scatterer. […] For an elongated scatterer, the shape factor depends upon the aspect ratio. A combination of temperature dependent turbidity and DLS was utilized to determine the phase behavior of the block co-polypeptides. Cryogenic transmission electron microscopy (Cryo-TEM) was utilized to evaluate the morphology and provide crucial insight into the hydration of the core/corona chains. Stability of the assembled nanostructure was determined by a shift in the I1/I3 fluorescent bands of pyrene as described previously.
Static and dynamic light scattering measurements (SLS/DLS) were performed using an ALV/CGS-3 goniometer system (Langen, Germany). Samples for the ALV/CGS-3 goniometer system were prepared at a concentration of 10 μM in PBS and filtered through 0.45 μm Millex-GV filters into a 10 mm disposable borosilicate glass tube (Fischer). Simultaneous SLS and DLS measurements were obtained at 15° C. of the ELP for angles between 30°-150° at 5° increments, with each angle consisting of 3 runs for 15 s. SLS experiments were only conducted for self-assembling block co-polypeptides, since the molecular weight of a single block co-polypeptide chain is already known, and the Rg of a single chain is likely near or below the detection limit of the SLS instrument. The differential refractive index (dn/dc) was determined by measuring the refractive index at different concentrations using an Abbemat 500 refractometer (Anton Paar, Graz, Austria). DLS data were analyzed by fitting the autocorrelation function with a cumulant fit, using the built-in ALV software. Hydrodynamic radius (Rh) was plotted against angle and extrapolated to zero. SLS data were analyzed by partial Zimm plots using ALVSTAT software in order to determine the Rg and molecular weight (MW).

[2] = Cryo-TEM micelle core size, inter-core spacing and aspect ratio; type: physicochemical; settings: for Spacing (nm): inter-core spacing; for Spacing (nm) / Core radius (nm): mean ± standard deviation
Procedure: Using the data from FIG. 18, particularly the longest straight line of an individual particle and a corresponding perpendicular measurement were made to describe the aspect ratio of particles observed.
Cryo-TEM experiments were performed at Duke University's Shared Materials Instrumentation Facility (Durham, N.C.). Lacey holey carbon grids (Ted Pella, Redding, Calif.) were glow discharged in a PELCO EasiGlow Cleaning System (Ted Pella, Redding, Calif.). A 3 μL drop (10 μM RLPn-ELP80) was deposited onto the grid, blotted for 3 s with an offset of −3 mm, and vitrified in liquid ethane using the Vitrobot Mark III (FEI, Eindhoven, Netherlands). Prior to vitrification, the sample chamber was maintained at 15° C. and 100% relative humidity to prevent sample evaporation. Grids were transferred to a Gatan 626 cryoholder (Gatan, Pleasanton, Calif.) and imaged with a FEI Tecnai G2 Twin TEM (FEI, Eindhoven, Netherlands), operating at 80 keV. Feature sizes and spacing distances were measured in ImageJ by manual measurement of at least 25 particles.

Molecule | shape factor / form factor (Rg/Rh) [1] | Nagg ([1]; Table 5) | Rg(nm) ([1]; Table 5) | Rh (nm) ([1]; Table 5) | ρ ([1]; Table 5) | Spacing (nm) ([2]; Table 6) | Core radius (nm) ([2]; Table 6) | hydrodynamic radius (Rh) [1] [nm] | radius of gyration (Rg) [1] [nm] | Nagg ([1]; Table 3) | Rg(nm) ([1]; Table 3) | Rh (nm) ([1]; Table 3) | ρ ([1]; Table 3) | Spacing (nm) ([2]; Table 4) | Core radius (nm) ([2]; Table 4) | core radius (cryo-TEM) [2] [nm] | spacing between particle cores (cryo-TEM) [2] [nm]
B1 | > 1 | 213 | 33.1 | 31.7 | 1.04 | 19.4 ± 4.4 | 14.5 ± 3.6 | – | – | – | – | – | – | – | – | – | –
B2 | 0.8 | – | – | – | – | – | – | 93.3 | 78.2 | 1728 | 78.2 | 93.5 | 0.84 | 59.0 ± 13.2 | 29.3 ± 4.5 | – | –
B3 | greater than 1 | – | – | – | – | – | – | 52.6 | 56.2 | 91 | 56.2 | 52.6 | 1.13 | 19.5 ± 4.3 | 11.8 ± 1.6 | 11.8 | 19.5
